Reference: patent US20090094709

Test system: AMPK, active (upstate) protein

PP2Cε protein (in vitro assay)
dephosphorylation of AMPK: the dephosphorylation of AMPK with PP2Cε occurs concentration-dependently
